This passage reports relative activity per expressed VDH, against the transformant expressing VDH solely and Activity (mmol/min/mol of VDH), VD3 conversion by Rhodococcus erythropolis transformant pTipQT-VDH-thcCD (mmol/min/mol of VDH) results from patent publication US20100297712A1.

Data set [1] deals with vitamin D3 hydroxylase (VDH) of Pseudonocardia autotrophica NBRC12743 strain (Pseudonocardia autotrophica) (UniProt C4B644). The data set is described as follows: cell-based or functional assay.
Data set [2] deals with T1, ferredoxin (ThcC) derived from Rhodococcus erythropolis strain NI86/21, P43493.
T1 chain: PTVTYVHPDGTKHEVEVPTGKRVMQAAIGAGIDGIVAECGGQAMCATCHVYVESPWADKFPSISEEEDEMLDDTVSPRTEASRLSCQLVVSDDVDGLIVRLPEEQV

For data set [3], the target named is T2, vitamin D3 hydroxylase (VDH) of Pseudonocardia autotrophica NBRC12743 strain.
T2 chain: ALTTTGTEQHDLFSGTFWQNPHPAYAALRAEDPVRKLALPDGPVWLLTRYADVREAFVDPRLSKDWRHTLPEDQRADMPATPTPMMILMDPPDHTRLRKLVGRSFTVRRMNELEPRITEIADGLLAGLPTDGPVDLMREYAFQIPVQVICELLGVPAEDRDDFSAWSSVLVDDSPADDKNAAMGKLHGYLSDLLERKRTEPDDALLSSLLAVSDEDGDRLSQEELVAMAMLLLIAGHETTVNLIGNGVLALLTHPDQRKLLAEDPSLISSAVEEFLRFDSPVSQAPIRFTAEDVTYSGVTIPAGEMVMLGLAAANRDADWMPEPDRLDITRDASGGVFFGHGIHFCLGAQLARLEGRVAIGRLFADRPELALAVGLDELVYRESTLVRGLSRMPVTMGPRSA

“ferredoxin (ThcC) derived from Rhodococcus erythropolis strain NI86/21 (from UniProt P43493 2-107)” yielded a relative activity per expressed VDH, against the transformant expressing VDH solely in data set [1] of 6 fold.

B1: vitamin D3 hydroxylase (VDH) of Pseudonocardia autotrophica NBRC12743 strain (protein)
chain: ALTTTGTEQHDLFSGTFWQNPHPAYAALRAEDPVRKLALPDGPVWLLTRYADVREAFVDPRLSKDWRHTLPEDQRADMPATPTPMMILMDPPDHTRLRKLVGRSFTVRRMNELEPRITEIADGLLAGLPTDGPVDLMREYAFQIPVQVICELLGVPAEDRDDFSAWSSVLVDDSPADDKNAAMGKLHGYLSDLLERKRTEPDDALLSSLLAVSDEDGDRLSQEELVAMAMLLLIAGHETTVNLIGNGVLALLTHPDQRKLLAEDPSLISSAVEEFLRFDSPVSQAPIRFTAEDVTYSGVTIPAGEMVMLGLAAANRDADWMPEPDRLDITRDASGGVFFGHGIHFCLGAQLARLEGRVAIGRLFADRPELALAVGLDELVYRESTLVRGLSRMPVTMGPRSA
For the molecule B1, the Activity (mmol/min/mol of VDH), VD3 conversion by Rhodococcus erythropolis transformant pTipQT-VDH-thcCD (mmol/min/mol of VDH) in data set [2] amounted to 119.

B2: ferredoxin reductase (ThcD) derived from Rhodococcus erythropolis strain NI86/21 (protein)
chain: SIVIIGSGQAGFEAAVSLRSHGFSGTITLVGDEPGVPYQRPPLSKAYLHSDPDRESLALRPAQYFDDHRITLTCGKPVVRIDRDAQRVELIDATAIEYDHLILATGARNRLLPVPGANLPGVHYLRTAGEAESLTSSMASCSSLVVIGAGFIGLEVAAAARKKGLDVTVVEAMDRPMARALSSVMSGYFSTAHTEHGVHMRLSTGVKTINAADGRAAGVTTNSGDVIHADAVVVGIGVVPNIELAALTGLPVDNGIVVDEYLRTPDENISAIGDCAAYPIPGKAGLVRLESVQNAVDQARCLAAQLTGTSTHYRSVPWFWSEQYESKLQMAGLTAGADTHVVRGSVDSGVFSIFCFLGTRLLGVESVNKPRDHMAARKILATEMPLTPEQAADTDFDLKLAIARHKDTHKDEVASADIGERQVVAS
With B2, in data set [3], the Activity (mmol/min/mol of VDH), VD3 conversion by Rhodococcus erythropolis transformant pTipQT-VDH-thcCD (mmol/min/mol of VDH) is 119 and the relative activity per expressed VDH, against the transformant expressing VDH solely came out at 6 fold.
